Measured values taken from publication PMC7335907.

Molecular target: small laccase from Streptomyces coelicolor (SLAC), T1 copper-depleted mutant C288S (SLAC-T1D) (Streptomyces coelicolor) (UniProt Q9XAL8)
Assay: SEC-MALS

small laccase from Streptomyces coelicolor (SLAC), T1 copper-depleted mutant C288S (SLAC-T1D) (from UniProt Q9XAL8 1-343) (enzyme)
stoichiometry N: 3
